One experiment concerns the target T1, CD44 (Homo sapiens, UniProt P16070).
T1 construct: endogenous in cells; host or cells: SK-Hep1 (human HCC cells)
Kind of experiment: Competitive inhibition with unlabeled peptide on SK-Hep1 cells. The settings on record: competition. Type of experiment: cell-based. The protocol: (§1) Specific peptide binding to CD44 was further validated using competitive inhibition by adding unlabeled peptide. Approximately […] SK-Hep1 cells were grown to ˜70% confluence on cover glass in triplicate. Unlabeled peptides at concentrations of 0, 10, 20, 40, 80, and 100 μM were incubated with the cells for 30 min at 4° C. The cells were washed with PBS and incubated with 5 μM of the target peptides for another 30 min at 4° C. The cells were washed and fixed with 4% PFA for 8 min. The cells were washed with PBS and mounted with ProLong Gold reagent containing DAPI (Invitrogen).

The target of experiment [1] is T2, CD44 (Cluster of differentiation 44) (human, UniProt P16070 21-742).
T2 construct: whole, on cells; The target is tied to CD44 by siRNA knockdown in SK-Hep1 cells; also called CD44 on human SK-Hep1 HCC cells
Description: confocal microscopy on SK-Hep1 cells.

In experiment [2] the target is T2, CD44 (Cluster of differentiation 44). Kind of experiment: confocal microscopy, SK-Hep1 control siRNA against CD44 knockdown cells.
Experiment [3] shares this target. Kind of experiment: flow cytometry on SK-Hep1 cells, labeled peptide 0-200 nM, 4 °C, 1 hour. Background: A flow cytometer gives signals particle by particle.
Description: The apparent dissociation constant kd for peptide binding to cells was measured to assess the binding affinity [31]. IRDye800-labeled target peptides were serially diluted in PBS at concentrations of 0, 10, 20, 40, 80, 100, and 200 nM. ˜10⁵ SK-Hep1 cells were incubated with the peptides at 4° C. for 1 hour, washed with cold PBS, and the mean fluorescence intensities were measured using flow cytometry. The equilibrium dissociation constant kd=1/kₐ was calculated by performing a least squares fit of the data to the non-linear equation l=(l₀+lₘₐₓkₐ [X])/(l₀+kₐ[X]). l₀ and lₘₐₓ are the initial and maximum fluorescence intensities, corresponding to no peptide and at saturation, respectively, and [X] represents the concentration of the bound peptide. Prism 5.0 software (GraphPad Inc) was used to calculate kd.
Experiment [4] shares this target. Description: competition against 5 µM WKG*-IRDye800 on SK-Hep1 cells; fifth of five concentrations of unlabeled peptide. The protocol:
as §1

For experiment [5] the target is unchanged. Description: competition against 5 µM WKG*-IRDye800 on SK-Hep1 cells; third of five concentrations of unlabeled peptide. The protocol: as §1
For experiment [6] the target is unchanged. Description: competition against 5 µM WKG*-IRDye800 on SK-Hep1 cells; fourth of five concentrations of unlabeled peptide. The protocol: as §1
For experiment [7] the target is unchanged. Kind of experiment: competition against 5 µM WKG*-IRDye800 on SK-Hep1 cells; second of five concentrations of unlabeled peptide. The method, then: as §1
Experiment [8] shares this target. Kind of experiment: competition against 5 µM WKG*-IRDye800 on SK-Hep1 cells; first of five concentrations of unlabeled peptide (series 0, 10, 20, 40, 80, 100 µM; which five not stated). The method, then: as §1

No end group written: not given here. IRDye800 = fluorophore linked at C-terminus via GGGSC linker

T2 sequence (P16070 21-742): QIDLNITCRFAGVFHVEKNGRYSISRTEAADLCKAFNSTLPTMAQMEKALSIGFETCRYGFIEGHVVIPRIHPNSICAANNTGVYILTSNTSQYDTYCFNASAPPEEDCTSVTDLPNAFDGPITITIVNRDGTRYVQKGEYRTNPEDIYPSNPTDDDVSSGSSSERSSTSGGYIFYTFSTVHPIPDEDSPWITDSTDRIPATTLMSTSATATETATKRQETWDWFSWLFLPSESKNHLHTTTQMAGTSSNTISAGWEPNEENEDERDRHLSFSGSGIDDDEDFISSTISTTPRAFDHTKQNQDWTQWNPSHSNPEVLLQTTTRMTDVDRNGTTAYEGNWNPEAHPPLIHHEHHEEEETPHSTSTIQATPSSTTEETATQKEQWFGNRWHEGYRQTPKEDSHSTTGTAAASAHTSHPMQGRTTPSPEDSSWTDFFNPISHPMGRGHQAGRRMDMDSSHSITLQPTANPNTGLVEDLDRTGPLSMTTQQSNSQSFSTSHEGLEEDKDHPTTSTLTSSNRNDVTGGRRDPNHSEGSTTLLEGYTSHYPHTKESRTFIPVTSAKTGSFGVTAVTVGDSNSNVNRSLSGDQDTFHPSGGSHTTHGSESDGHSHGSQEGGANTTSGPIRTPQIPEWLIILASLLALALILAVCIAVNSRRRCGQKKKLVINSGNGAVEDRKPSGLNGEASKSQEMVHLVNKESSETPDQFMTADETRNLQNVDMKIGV
T1 sequence (P16070 21-742): as above

On to WKGWSYLWTQQA [WKG*], for which the “change of WKG*-IRDye800 fluorescence intensities with increasing concentrations of unlabeled peptide” value with CD44 was “decreased significantly”.
As for “rabbit anti-CD44 antibody (EPR18668, Abcam)”, in experiment [1], the fold change in fluorescence intensity relative to WYK*-IRDye800 (control) worked out at 5.61 fold. For the same molecule, in [2], the fold change in fluorescence intensity, siCL relative to siCD441 is 4.1 fold; the fold change in fluorescence intensity, siCL relative to siCD442 was 3.3 fold; the fold change in fluorescence intensity, siCL relative to siCD443 is 3.1 fold.

B1: WKG*-IRDye800 (peptide)
peptide: WKGWSYLWTQQAGGGSC-IRDye800
notes: Synthetic L-amino acid peptide made by Fmoc solid-phase synthesis on rink amide MBHA resin; also called CD44-directed peptide
The term Kd denotes the constant that tells how readily two partners part at equilibrium. Read a high Kd as a looser complex. In turn, B1 had a Kd in [3] of 43 nM.

B2: unlabeled WKG* (peptide)
peptide: WKGWSYLWTQQA
modifications: also: may carry GGGSC linker and C-terminal amide
notes: The m/z of 1913.87 printed for WKG* fits the 12-mer plus GGGSC with a C-terminal amide; also called unlabeled peptide
On to B2, for which the “fold change of fluorescence intensity relative to an equal concentration of WYK*” value was found to be 0.1 fold in experiment [4]; 0.36 fold in [5]; 0.12 fold in [6]; 0.61 fold in [7]; 1.02 fold in [8].
